According to patent US20130266566A1 (AbbVie / Abbott, published 2013):

T1: rat PAI-1 (rat, UniProt P20961 24-402)
T1 sequence: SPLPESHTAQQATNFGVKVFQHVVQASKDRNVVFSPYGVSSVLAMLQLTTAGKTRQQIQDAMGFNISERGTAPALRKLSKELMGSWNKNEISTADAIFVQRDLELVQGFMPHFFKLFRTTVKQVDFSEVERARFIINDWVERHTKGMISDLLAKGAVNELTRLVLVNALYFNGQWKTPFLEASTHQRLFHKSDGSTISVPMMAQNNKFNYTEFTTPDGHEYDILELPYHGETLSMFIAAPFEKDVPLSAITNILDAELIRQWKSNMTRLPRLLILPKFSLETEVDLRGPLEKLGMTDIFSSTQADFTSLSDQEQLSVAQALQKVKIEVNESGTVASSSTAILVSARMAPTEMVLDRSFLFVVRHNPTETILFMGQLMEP

T2: mouse PAI-1 (mouse, UniProt P22777 24-401)
T2 sequence: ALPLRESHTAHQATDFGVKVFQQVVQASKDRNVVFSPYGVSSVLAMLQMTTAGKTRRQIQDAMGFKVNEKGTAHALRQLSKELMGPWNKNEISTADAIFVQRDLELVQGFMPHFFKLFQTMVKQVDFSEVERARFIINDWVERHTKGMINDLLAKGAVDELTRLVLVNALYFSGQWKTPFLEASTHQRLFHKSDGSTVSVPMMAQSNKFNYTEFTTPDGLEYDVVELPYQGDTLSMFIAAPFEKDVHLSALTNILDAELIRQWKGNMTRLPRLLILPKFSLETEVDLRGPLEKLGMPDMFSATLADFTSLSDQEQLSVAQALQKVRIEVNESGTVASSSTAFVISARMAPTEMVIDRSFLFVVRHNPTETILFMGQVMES


Legend:
Assay in all cases: cell-based or functional assay
rat PAI-1 = biological target: T1, rat PAI-1
mouse PAI-1 = biological target: T2, mouse PAI-1
cynomolgus PAI-1 = cynomolgus PAI-1 (cynomolgus, UniProt P05121 24-402 (human entry), limits assumed)
[1] = biological target: active human PAI-1, recombinant, wild-type, non-glycosylated (E. coli) (human, UniProt P05121 24-402)

Row | Binder | Chromogenic IC50 ratio rat/human (rat PAI-1) [fold] | Chromogenic IC50 ratio mouse/human (mouse PAI-1) [fold] | Chromogenic IC50 ratio cyno/human (cynomolgus PAI-1) [fold] | Chromogenic (IC50 in nM) human [1] [nM] | Chromogenic (IC50 in nM) cyno (cynomolgus PAI-1) [nM] | Chromogenic (IC50 in nM) rat (rat PAI-1) [nM] | Chromogenic (IC50 in nM) mouse (mouse PAI-1) [nM]
1 | Antibody 02 IgG1, not germlined (antibody, V domains shown) VH: QVQLVQSGAEVKKPGSSVKVSCKASGGTFSSYAISWVRQAPGQGLEWMGGIIPTFGTANYAQKFQGRVTITADESTSTAYMELSSLRSEDTAVYYCAREKRQWLEGHFDYWGRGTLVTVSS VL: DIQMTQSPSTLSASVGDRVTITCRASEGIYHSLAWYQQKPGKAPKLLIYKASSLASGVPSRFSGSGSGTEFTLTISSLQPDDFATYYCQQYSDYPLTFGGGTKVEIK | 317 | 104 |  |  |  |  | 
2 | Antibody 01 IgG1, not germlined (antibody, V domains shown) VH: QVQLVQSGAEVKKPGSSVKVSCKASGGTFSSYAISWVRQAPGQGLEWMGGIIPIFGTANYAQKFQGRVTITADESTSTAYMELSSLRSEDTAVYYCAREKRQWLEGHFDYWGRGTLVTVSS VL: DIQMTQSPSTLSASVGDRVTITCRASEGIYRSLAWYQQKPGKAPKLLIYKASSLASGVPSRFSGSGSGTEFTLTISSLQPDDFATYYCQQYSNYPLTFGGGTKVEIK | 66.2 | 20 | 0.4 |  |  |  | 
3 | Antibody 11 scFv (scFv) QVQLQQSGAEVKKPGSSVKVSCKASGGTFSSYAISWMRQAPGQGLEWMGGIIPIFGTANYAQKFQGRVTITADESTSTAYMELSGLRSEDTAVYYCAREKRQWLEGHFDYWGRGTPVTVSSDIQMIQSPSFLSASTGDRVTITCQASEGIYHELAWYQQKPGKAPKLLIYRASSLASGAPSRFSGSGSGTDFTLTISSLQPDDFATYYCQQYSNYPLTFGGGTKLEIK | 0.6 | 0.3 | 0.4 | 102 | 43.8 | 59.5 | 33.6
4 | Antibody 23 scFv (scFv) QVQLQQSGAEVKKPGSSVKVSCKASGGTFSSYAISWVRQAPGQGLEWMGGIIPTFGTANYAQKFQSRVTITADESTSTAYMELSGLRSEDTAVYYCAREKRQWLEGHFDYWGRGTPVTVSSDIQMTQSPSFLSASIGDRVTITCRASEGIYHSLAWYQQKPGKAPKLLIYRASSLASGAPSRFSGSGSGTDFTLTISSLQPDDFATYYCQQYSNYPLTFGGGTKLEIK | 229 | 229 | 0.3 | 1.6 | 0.5 | 376 | 376
5 | Antibody 18 scFv (scFv) QVQLQQSGAEVKKPGSSVKVSCKASGGTFSSYAISWVRQAPGQGLEWMGGIIPTFGTANYAQKLQGRVTITADESTSTAYMELSGLRSEDTAVYYCAREKRQWLEGHFDYWGRGTPVTVSSDIQMTQSPSFLSASIGDRVTITCRASEGIYHALAWYQQKPGKAPKLLIYRASSLASGAPSRFSGSGSGTDFTLTISSLQPDDFATYYCQQYSNYPLTFGGGTKLEIK |  | 255 | 0.4 |  | 0.5 |  | 319
6 | Antibody 17 scFv (scFv) QVQLQQSGAEVKKPGSSVKVSCKASGGTFSSYAISWVRQAPGQGLEWMGGIIPTFGTANYAQKFQGRVTITADESTSTAYMELSGLRSEDTAVYYCAREKRQWLEGHFDYWGRGTPVTVSSDIQMTQSPSFLSASIGDRVTITCRASEGIYHELAWYQQKPGKAPKLLIYRASSLASGAPSRFSGSGSGTDFTLTISSLQPDDFATYYCQQYSNYPLTFGGGTKLEIK | 0.3 | 0.4 | 0.6 | 71.5 | 41.5 | 24.9 | 26.2
7 | Antibody 24 scFv (scFv) QVQLQQSGAEVKKPGSSVKVSCKASGGTFSSYAISWVRQAPGQGLEWMGGIIPTFVTANYAQKFQGRVSITADESTSTAYMELSGLRSEDTAVYYCAREKRQWLEGHFDYWGRGTPVTVSSDIQMTQSPSFLSASIGDRVTITCRASEGIYHALAWYQQKPGKAPKLLIYRASSLASGAPSRFSGSGSGTDFTLTISSLQPDDFATYYCQQYSNYPLTFGGGTKLEIK | 39.3 | 43.3 | 0.3 | 3.2 | 1.1 | 127 | 140
8 | Antibody 12 scFv (scFv) QVQLQQSGAEVKKPGSSVKVSCKASGGTFSSYAISWVRQAPGQGLEWMGGIIPTFPTANYAQKFQGRVTITADESTSTAYMELSGLRSEDTAVYYCAREKRQWLEGHFDYWGRGTPVTVSSDIQMTQSPSFLSASIGDRVTITCRASEGIYHNLAWYQQKPGKAPKLLIYRASSLASGAPSRFSGSGSGTDFTLTISSLQPDDFATYYCQQYSNYPLTFGGGTKLEIK | 34.4 | 12.2 | 0.3 | 2.3 | 0.6 | 78.2 | 27.8
9 | Antibody 22 scFv (scFv) QVQLQQSGAEVKKPGSSVKVSCKASGGTFSGYAISWVRQAPGQGLEWMGGIIPTFGTANYSQKFQGRVTITADESTSTAYMELSGLRSEDTAVYYCAREKRQWLEGHFDYWGRGTPVTVSSDIQMTQSLSFLSASIGDRVTITCRASEGIYHALAWYQQKPGKAPKLLIYRASSLASGAPSRFSGSGSGTDFTLTISSLQPDDFATYYCQQYSNYPLTFGGGTKLEIK | 81.2 | 82.6 | 0.3 | 5 | 1.5 | 406 | 413
10 | Antibody 13 scFv (scFv) QVQLQQSGAEVKKPGSSVKVSCKASGGTFSSYAISWVRQAPGQGLEWMGGIIPTFGTANYAQKFQGRVTITADESTSTAYMELSDLRSEDTAVYYCAREKRQWLEGHFDYWGRGTPVTVSSDIQMTQSPSFLSASIGDRVTITCRASEGIYHSLAWYQQKPGKAPKLLIYRASSLASGAPSRFSGSGSGTDFTLTISSLQPDDFATYYCQQYSNYPLTFGGGTKLEIK | 48.6 | 85.8 | 0.4 | 2.9 | 1.2 | 140 | 247
11 | Antibody 21 scFv (scFv) PVQLQQSGAEVKKPGSSVKVSCKASGGTFSSYAISWVRQAPGQGLEWMGGIIPTFGTANYAQKFQGRVTITADESTSTAYMELSGLRSEDTAVYYCAREKRQWLEGHFDYWGRGTPVTVSSDIQMAQSPSFLSASIGDRVTITCRASEGIYHNLAWYQQKPGKAPKLLIYRASSLASGAPSRFSGSGSGTDFTLTISSLQPDDFATYYCQQYSNYPLTFGGGTKLEIK | 12 | 7.9 | 0.4 | 4.1 | 1.6 | 49.2 | 32.2
12 | Antibody 19 scFv (scFv) QVQLQQSGAEVKKPGSSVKVSCKASGGTFSSYAISWVRQAPGQGLEWMGGIIPIFDTANYAQKFQGRVTITADESTSTAYMELSGLRSEDTAVYYCARERRQWLEGHFDYWGRGTPVTVSSDIRMTQSPSFLSASIGDRVTITCRASEGIYHELAWYQQKPGKAPKLLIYRASSLASGAPSRFSGSGSGTEFTLTISSLQPDDFATYYCQQYSNYPLTFGGGTKLEIK | 0.3 | 0.2 | 0.4 | 26 | 10.8 | 7.9 | 6.4
